Results published in patent US20220193251A1, “CD30 TARGETING ANTIBODY DRUG CONJUGATES AND USES THEREOF” (Ludwig-Maximilians-Universitaet Muenchen, priority 2020, published 2022).

Columns and labels:
cathepsin B = cathepsin B (Homo sapiens, UniProt P07858); test: Digestion of vc payloads with protease cathepsin B, RP-HPLC; type: biochemical; conditions: cathepsin B 1:1000 for each vc moiety
Protocol: Prior to the conjugation with the antibody, payloads 2 and 3 have been analyzed for their susceptibility to cleavage by the protease cathepsin B (FIGS. 5A-5C).
FIGS. 5A-5C show in FIG. 5A an RP-HPLC analysis of the valine-citrulline (vc) containing payload 2 during digestion reaction with the protease cathepsin B (1:1000 for each vc moiety). Prior to analysis the reaction was stopped with E-64. The chromatogram after a reaction time of 150 min was recorded at 220 nm. […] During the reaction of payload 3 with cathepsin B an intermediate is formed (grey, triangle) which contains one MMAE moiety.

[1] = Storage of ADCs in mouse-plasma for 7 days at 37° C.; type: in vitro ADME; conditions: for DARav after plasma incubation n = 2 / Payload lost: mouse-plasma, 7 days at 37° C.
[2] = Repeated dose toxicity and toxicokinetics study in rats; type: in vivo, Sprague Dawley rats; conditions: for Glucose level: one ADC compared to the other
Protocol: Experiments were performed in accordance with animal welfare law and approved by local authorities. […] Clinical observations, body weight and food consumption were determined daily throughout the study. Pharmacokinetic samples were obtained prior to each dose, 15 minutes post each dose and at necropsy from each animal. All animals were necropsied, with organs weighed and retained in fixative. Clinical pathology (hematology, clinical chemistry and coagulation end-points) samples were also taken at necropsy.
Clinical observations, body weight and food consumption were determined daily throughout the study. Pharmacokinetic samples were obtained prior to each dose, 15 minutes post each dose and at necropsy from each animal. All animals were necropsied, with organs weighed and retained in fixative. Clinical pathology (hematology, clinical chemistry, and coagulation endpoints) samples were also taken at necropsy.
As reference, rats were dosed with a control (vehicle) (data not shown).

[3] = Repeated dose toxicity and toxicokinetic study in cynomolgus monkey; type: in vivo
Protocol: Clinical condition (incl. bodyweight, food consumption & clinical observations), clinical pathology and immunophenotyping (T, B and NK cells) was evaluated throughout the study, with frequent sampling for TK and anti-drug antibody determination. All animals were subject to full necropsy with detailed macroscopic observations.
Bodyweight is depicted in kilogram, lymphocytes in billion per liter, neutrophiles in billion per liter and white blood cells in billion per liter.

[4] = cynomolgus monkey, cited from earlier work
[5] = cynomolgus monkey, 6, 12 and 15 mg/kg
[6] = cynomolgus monkey, 6, 12 and 15 mg/kg repeated dose
[7] = rat, 10 mg/kg weekly, compared to the Brentuximab Tub-tag ADC

Compound | susceptibility to cleavage by cathepsin B, release of free MMAE (cathepsin B) | DAR before plasma incubation [1] | DARav after plasma incubation n = 2 [1] | Payload lost [1] | Hematocrit ([2]; rat, 10 mg/kg weekly) | Hemoglobin levels ([2]; rat, 10 mg/kg weekly) | MMAE driven testes changes ([2]; rat, 10 mg/kg weekly) | Red blood cell count ([2]; rat, 10 mg/kg weekly) | Reticulocytes count ([2]; rat, 10 mg/kg weekly) | Glucose level ([2]; rat, 10 mg/kg weekly) | other results
CC[C@H](C)[C@H]([C@H](CC(=O)N1CCC[C@@H]1[C@@H](OC)[C@H](C)C(=O)N[C@@H](C)[C@H](O)c1ccccc1)OC)N(C)C(=O)[C@H](NC(O)[C@@H](C(C)C)N(C)C(=O)OCc1ccc(NC(=O)[C@@H](CCCNC(N)=O)NC(=O)[C@H](NC(=O)CON)C(C)C)cc1)C(C)C (stereo partly shown) [payload 2, HA-VC-PAB-MMAE] | cleaved by cathepsin B | – | – | – | – | – | – | – | – | – | –
Bren. HC-2: Brentuximab with Tub-tag on heavy chains (SEQ ID NO: 2/12), 3-formyl-L-tyrosine, oxime-linked Payload 2 (vc-PAB-MMAE), DAR 2 | – | 2 | 1.8 | 10% | – | – | – | – | – | – | –
Bren. LC-2: Brentuximab with Tub-tag on light chains (SEQ ID NO: 11/1), 3-formyl-L-tyrosine, oxime-linked Payload 2 (vc-PAB-MMAE), DAR 2 | – | 2 | 1.8 | 10% | no marked effect | no marked effect | delayed in onset | no marked effect | no effect | lower glucose levels | overall safety profile in the rat ([2]; 10 mg/kg weekly): better safety profile compared to Brentuximab vedotin; serum concentrations after repeated doses ([2]; rat, 10 mg/kg i.v. at day 1, 8, 15 and 22): reasonable levels of serum concentrations; impact on red blood cell populations ([2]; rat, 10 mg/kg weekly): no impact on red blood cell populations; lymphocytes concentration and white blood cells concentration [3, 5]: No significant changes; reduction in neutrophiles in comparison to Brentuximab vedotin (3 mg/kg) [3, 5]: does not cause a higher amount of reduction in neutrophiles; clinical tolerability [3, 6]: clinically well tolerated; mortality, macroscopic and microscopic findings [3, 6]: no mortality and no macroscopic or sever microscopic findings; reductions in red blood cells, hemoglobin and neutrophils ([3]; cynomolgus monkey, at 12 & 15 mg/kg): relatively consistent to those observed with Adcetris at 3 mg/kg
Brentuximab vedotin: approved CD30 ADC: chimeric IgG1 brentuximab, Cathepsin B cleavable Valin-Citrulline linker, Monomethyl-Auristatin E; maleimide-linked, DARav 4 | – | 4.02 | 1.53 | 62% | reduces hematocrit (mainly in males) | reduces hemoglobin levels (mainly in males) | testes changes were observed | marked impact | marked impact | greater level of glucose | APTT [2, 7]: lower APTT values; Eosinophils counts [2, 7]: lower eosinophils counts; Testis weight [2, 7]: lower testis weight; Thymus weight [2, 7]: lower thymus weight; tolerability at 6 mg/kg ([4]; 6 mg/kg): poorly tolerated; MTD [4]: 3 mg/kg
HA-(VC-PAB-MMAE)2 [payload 3] | cleaved by cathepsin B | – | – | – | – | – | – | – | – | – | –
